The record followed here is publication PMC10556033.

A short description of this data set: eIF4E2 co-IP, 4E-T and GIGYF2 immunoblot. The conditions noted are these: glycan lost; control: MEST cDNA (wild type).

B1: mesoderm-specific transcript (MEST), also named PEG1: MEST N163Q (protein)
parent chain: MVRRDRLRRMREWWVQVGLLAVPLLAAYLHIPPPQLSPALHSWKSSGKFFTYKGLRIFYQDSVGVVGSPEIVVLLHGFPTSSYDWYKIWEGLTLRFHRVIALDFLGFGFSDKPRPHHYSIFEQASIVEALLRHLGLQNRRINLLSHDYGDIVAQELLYRYKQNRSGRLTIKSLCLSNGGIFPETHRPLLLQKLLKDGGVLSPILTRLMNFFVFSRGLTPVFGPYTRPSESELWDMWAGIRNNDGNLVIDSLLQYINQRKKFRRRWVGALASVTIPIHFIYGPLDPVNPYPEFLELYRKTLPRSTVSILDDHISHYPQLEDPMGFLNAYMGFINSF
With B1, the “other: eIF4E2-4E-T/GIGYF2 complex formation in cells” value is reported as “increases”.
